Experiments:
Experiment in all cases: cell-based or functional assay
[1] = target: HIV-1 Env of pseudovirus CNE53 (HIV-1)
[2] = target: HIV-1 Env of pseudovirus CNE20 (HIV-1)
[3] = target: HIV-1 Env of pseudovirus 1012_11_TC21_3257 (HIV-1)
[4] = target: HIV-1 Env of pseudovirus X1254_c3 (HIV-1)
[5] = target: HIV-1 Env of pseudovirus ZM249M.PL1 (HIV-1)
[6] = target: HIV-1 Env of pseudovirus 928-28 (HIV-1)
[7] = target: HIV-1 Env of pseudovirus P1981_C5_3 (HIV-1)
[8] = target: HIV-1 Env of pseudovirus ZM233M.PB6 (HIV-1)
[9] = target: HIV-1 Env of pseudovirus 6540.v4.c1 (HIV-1)
[10] = target: HIV-1 Env of pseudovirus Du156.12 (HIV-1)
[11] = target: HIV-1 Env of pseudovirus MS208.A1 (HIV-1)
[12] = target: HIV-1 Env of pseudovirus 0260.v5.c36 (HIV-1)
[13] = target: HIV-1 Env of pseudovirus Du422.1 (HIV-1)
[14] = target: HIV-1 Env of pseudovirus CNE8 (HIV-1)
[15] = target: HIV-1 Env of pseudovirus T251-18 (HIV-1)
[16] = target: HIV-1 Env of pseudovirus Ce703010054_2A2 (HIV-1)
[17] = target: HIV-1 Env of pseudovirus ZM53M.PB12 (HIV-1)
[18] = target: HIV-1 Env of pseudovirus Ce0682_E4 (HIV-1)
[19] = target: HIV-1 Env of pseudovirus X1193_c1 (HIV-1)
[20] = target: HIV-1 Env of pseudovirus ZM214M.PL15 (HIV-1)
[21] = target: HIV-1 Env of pseudovirus 6811.v7.c18 (HIV-1)
[22] = target: HIV-1 Env of pseudovirus HIV-001428-2.42 (HIV-1)
[23] = target: HIV-1 Env of pseudovirus R2184.c04 (HIV-1)
[24] = target: HIV-1 Env of pseudovirus 231966.c02 (HIV-1)
[25] = target: HIV-1 Env of pseudovirus T278-50 (HIV-1)
[26] = target: HIV-1 Env of pseudovirus CAP210.2.00.E8 (HIV-1)
[27] = target: HIV-1 Env of pseudovirus BJOX028000.10.3 (HIV-1)
[28] = target: HIV-1 Env of pseudovirus 1056_10_TA11_1826 (HIV-1)
[29] = target: HIV-1 Env of pseudovirus BJOX015000.11.5 (HIV-1)
[30] = target: HIV-1 Env of pseudovirus ZM109F.PB4 (HIV-1)
[31] = target: HIV-1 Env of pseudovirus Q842.d12 (HIV-1)
[32] = target: HIV-1 Env of pseudovirus Ce2010_F5 (HIV-1)
[33] = target: HIV-1 Env of pseudovirus Q461.e2 (HIV-1)
[34] = target: HIV-1 Env of pseudovirus Ce0393_C3 (HIV-1)
[35] = target: HIV-1 Env of pseudovirus Ce1176_A3 (HIV-1)
[36] = target: HIV-1 Env of pseudovirus CAAN5342.A2 (HIV-1)
[37] = target: HIV-1 Env of pseudovirus CNE5 (HIV-1)

Substance: N49P6 (antibody)
- IC50 [1]: 0.249 µg/mL
- IC80 [1]: 0.871 µg/mL
- MPI [1]: 99
- IC50 [2]: 2.74 µg/mL
- IC80 [2]: 15.6 µg/mL
- MPI [2]: 95
- IC50 [3]: 0.137 µg/mL
- IC80 [3]: 0.502 µg/mL
- MPI [3]: 100
- IC50 [4]: 15.7 µg/mL
- IC80 [4]: 34.2 µg/mL
- MPI [4]: 91
- IC50 [5]: 0.112 µg/mL
- IC80 [5]: 0.376 µg/mL
- MPI [5]: 100
- IC50 [6]: 1.24 µg/mL
- IC80 [6]: 5.6 µg/mL
- MPI [6]: 99
- IC50 [7]: 0.31 µg/mL
- IC80 [7]: 0.708 µg/mL
- MPI [7]: 100
- IC50 [8]: 1.23 µg/mL
- IC80 [8]: 4 µg/mL
- MPI [8]: 99
- IC50 [9]: 14 µg/mL
- IC80 [9]: 47.5 µg/mL
- MPI [9]: 81
- IC50 [10]: 0.082 µg/mL
- IC80 [10]: 0.28 µg/mL
- MPI [10]: 100
- IC50 [11]: 0.11 µg/mL
- IC80 [11]: 0.436 µg/mL
- MPI [11]: 100
- IC50 [12]: 0.485 µg/mL
- IC80 [12]: 1.55 µg/mL
- MPI [12]: 100
- IC50 [13]: 44 µg/mL
- IC80 [13]: > 50 µg/mL
- MPI [13]: 57
- IC50 [14]: 0.072 µg/mL
- IC80 [14]: 0.245 µg/mL
- MPI [14]: 100
- IC50 [15]: 0.344 µg/mL
- IC80 [15]: 0.929 µg/mL
- MPI [15]: 100
- IC50 [16]: 0.245 µg/mL
- IC80 [16]: 0.841 µg/mL
- MPI [16]: 100
- IC50 [17]: 0.538 µg/mL
- IC80 [17]: 1.71 µg/mL
- MPI [17]: 100
- IC50 [18]: 0.095 µg/mL
- IC80 [18]: 0.315 µg/mL
- MPI [18]: 100
- IC50 [19]: 0.074 µg/mL
- IC80 [19]: 0.224 µg/mL
- MPI [19]: 100
- IC50 [20]: 0.51 µg/mL
- IC80 [20]: 1.8 µg/mL
- MPI [20]: 100
- IC50 [21]: 0.238 µg/mL
- IC80 [21]: 1.01 µg/mL
- MPI [21]: 100
- IC50 [22]: 0.016 µg/mL
- IC80 [22]: 0.05 µg/mL
- MPI [22]: 100
- IC50 [23]: 0.028 µg/mL
- IC80 [23]: 0.077 µg/mL
- MPI [23]: 100
- IC50 [24]: 0.339 µg/mL
- IC80 [24]: 1.62 µg/mL
- MPI [24]: 100
- IC50 [25]: 25.7 µg/mL
- IC80 [25]: > 50 µg/mL
- MPI [25]: 67
- IC50 [26]: 22.6 µg/mL
- IC80 [26]: > 50 µg/mL
- MPI [26]: 73
- IC50 [27]: 6.68 µg/mL
- IC80 [27]: > 50 µg/mL
- MPI [27]: 77
- IC50 [28]: 0.209 µg/mL
- IC80 [28]: 0.606 µg/mL
- MPI [28]: 100
- IC50 [29]: 0.07 µg/mL
- IC80 [29]: 0.312 µg/mL
- MPI [29]: 100
- IC50 [30]: 0.084 µg/mL
- IC80 [30]: 0.29 µg/mL
- MPI [30]: 99
- IC50 [31]: 0.034 µg/mL
- IC80 [31]: 0.091 µg/mL
- MPI [31]: 100
- IC50 [32]: 0.124 µg/mL
- IC80 [32]: 0.749 µg/mL
- MPI [32]: 100
- IC50 [33]: 0.173 µg/mL
- IC80 [33]: 0.622 µg/mL
- MPI [33]: 100
- IC50 [34]: 0.608 µg/mL
- IC80 [34]: 3.25 µg/mL
- MPI [34]: 100
- IC50 [35]: 0.594 µg/mL
- IC80 [35]: 2.11 µg/mL
- MPI [35]: 100
- IC50 [36]: 0.657 µg/mL
- IC80 [36]: 1.83 µg/mL
- MPI [36]: 100

Substance: VRC01 (antibody)
- IC50, titer in TZM.bl cells [3]: 0.12 µg/mL
- IC80, titer in TZM.bl cells [3]: 0.32 µg/mL
- IC50, titer in TZM.bl cells [4]: 0.07 µg/mL
- IC80, titer in TZM.bl cells [4]: 0.19 µg/mL
- IC50, titer in TZM.bl cells [5]: 0.05 µg/mL
- IC80, titer in TZM.bl cells [5]: 0.23 µg/mL
- IC50, titer in TZM.bl cells [6]: 0.41 µg/mL
- IC80, titer in TZM.bl cells [6]: 1.7 µg/mL
- IC50, titer in TZM.bl cells [37]: 0.37 µg/mL
- IC80, titer in TZM.bl cells [37]: 1.1 µg/mL
- IC50, titer in TZM.bl cells [7]: 0.46 µg/mL
- IC80, titer in TZM.bl cells [7]: 1.26 µg/mL
- IC50, titer in TZM.bl cells [8]: 2 µg/mL
- IC80, titer in TZM.bl cells [8]: 9.3 µg/mL
- IC50, titer in TZM.bl cells [9]: > 50 µg/mL
- IC80, titer in TZM.bl cells [9]: > 50 µg/mL
- IC50, titer in TZM.bl cells [10]: 0.09 µg/mL
- IC80, titer in TZM.bl cells [10]: 0.193 µg/mL
- IC50, titer in TZM.bl cells [11]: 0.1 µg/mL
- IC80, titer in TZM.bl cells [11]: 0.46 µg/mL
- IC50, titer in TZM.bl cells [13]: > 50 µg/mL
- IC80, titer in TZM.bl cells [13]: > 50 µg/mL
- IC80, titer in TZM.bl cells [15]: 11.2 µg/mL
- IC50, titer in TZM.bl cells [16]: 0.53 µg/mL
- IC80, titer in TZM.bl cells [16]: 1.84 µg/mL
- IC50, titer in TZM.bl cells [17]: 1.3 µg/mL
- IC80, titer in TZM.bl cells [17]: 4 µg/mL
- IC50, titer in TZM.bl cells [18]: 0.08 µg/mL
- IC80, titer in TZM.bl cells [18]: 0.48 µg/mL
- IC50, titer in TZM.bl cells [19]: 0.11 µg/mL
- IC80, titer in TZM.bl cells [19]: 0.32 µg/mL
- IC50, titer in TZM.bl cells [20]: 0.44 µg/mL
- IC80, titer in TZM.bl cells [20]: 2.6 µg/mL
- IC50, titer in TZM.bl cells [21]: 0.09 µg/mL
- IC80, titer in TZM.bl cells [21]: 0.26 µg/mL
- IC50, titer in TZM.bl cells [22]: 0.02 µg/mL
- IC80, titer in TZM.bl cells [22]: 0.06 µg/mL
- IC50, titer in TZM.bl cells [23]: 0.08 µg/mL
- IC80, titer in TZM.bl cells [23]: 0.32 µg/mL
- IC50, titer in TZM.bl cells [25]: > 50 µg/mL
- IC80, titer in TZM.bl cells [25]: > 50 µg/mL
- IC50, titer in TZM.bl cells [26]: > 50 µg/mL
- IC80, titer in TZM.bl cells [26]: > 50 µg/mL
- IC50, titer in TZM.bl cells [28]: 0.92 µg/mL
- IC80, titer in TZM.bl cells [28]: 3.28 µg/mL
- IC50, titer in TZM.bl cells [30]: 0.13 µg/mL
- IC80, titer in TZM.bl cells [30]: 0.75 µg/mL
- IC50, titer in TZM.bl cells [31]: 0.03 µg/mL
- IC80, titer in TZM.bl cells [31]: 0.096 µg/mL
- IC50, titer in TZM.bl cells [32]: 0.32 µg/mL
- IC80, titer in TZM.bl cells [32]: 1.07 µg/mL
- IC50, titer in TZM.bl cells [33]: 0.49 µg/mL
- IC80, titer in TZM.bl cells [33]: 1.6 µg/mL
- IC50, titer in TZM.bl cells [34]: 0.62 µg/mL
- IC80, titer in TZM.bl cells [34]: 2.37 µg/mL
- IC50, titer in TZM.bl cells [35]: 2.25 µg/mL
- IC80, titer in TZM.bl cells [35]: 8.1 µg/mL
- IC50, titer in TZM.bl cells [36]: 0.82 µg/mL
- IC80, titer in TZM.bl cells [36]: 2.8 µg/mL

Reference: patent publication US20230002480A1
